The values below come from PMC6185872 (Cell Host & Microbe, 2018).

The target in test [1] is T1, sCD4 D1D2 (domains 1 and 2; residues 1-186 of mature CD4).
T1 construct: also called soluble CD4; source: HEK293-6E, transient transfection, purified (Ni-NTA, SEC)
The experiment in a line: cryo-EM structure. As to conditions: both partners purified.

The next test concerns the target T2, B41 SOSIP.664 v4.2 (HIV-1 (clade B B41)).
T2 construct: copies: 3 + 3
In words: cryo-EM structure. As to conditions: both partners purified.

B1: 21c Fab (Fab, V domains shown)
VH: QVQVVQSGAEVRKPGASVKVSCKVSGFTLTGLSIHWVRQAPGKGLEWMGGFGPEENEIIYAQKFQGRVSMTEDTSTNTAYMELSSLRSEDTAVYYCATGGNYYNLWTGYYPLAYWGQGTLVTVSS
VL: QSVLTQPPSVSAAPGQKVTISCSGSSSNIGKNYVSWYQQLPGAAPKLLIFDDTQRPSGIPDRFSGSKSGTSATLAITGLQTGDEADYYCGTWDSSLSTGQLFGGGTKLTVL
notes: also called CD4i antibody 21c
Regarding B1, the binding result in test [1] was “binds”. Besides, in the test with B41 SOSIP.664 v4.2, the “stoichiometry N” value turned out to be 3 copies per Env trimer.

Broadly, the stoichiometry N is the number of molecules, sites or subunits per partner or assembly.
